In patent US20150203840A1 (ARGEN X N V, published 2015):

T1: human IL22R on BW-hIL22R cells (human, UniProt Q8N6P7 16-574)
T1 sequence (looked up): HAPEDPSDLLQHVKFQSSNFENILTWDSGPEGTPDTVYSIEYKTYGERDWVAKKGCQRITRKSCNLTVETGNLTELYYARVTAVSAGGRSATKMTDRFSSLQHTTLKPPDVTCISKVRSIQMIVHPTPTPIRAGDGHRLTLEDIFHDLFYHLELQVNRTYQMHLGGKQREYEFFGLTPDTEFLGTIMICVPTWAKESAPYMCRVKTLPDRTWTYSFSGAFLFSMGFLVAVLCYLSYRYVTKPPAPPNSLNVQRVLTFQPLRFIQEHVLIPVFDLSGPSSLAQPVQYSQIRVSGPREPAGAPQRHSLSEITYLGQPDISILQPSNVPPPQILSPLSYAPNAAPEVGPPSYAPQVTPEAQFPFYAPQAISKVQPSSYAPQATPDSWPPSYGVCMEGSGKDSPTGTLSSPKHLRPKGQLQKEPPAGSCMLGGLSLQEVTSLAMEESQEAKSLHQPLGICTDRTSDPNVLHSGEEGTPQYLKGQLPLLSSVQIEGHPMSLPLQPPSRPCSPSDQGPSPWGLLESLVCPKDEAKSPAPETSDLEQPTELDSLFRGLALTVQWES

T2: recombinant human IL22R1 (human IL22R ECD) (human, UniProt Q8N6P7 16-228, biotinylated in the ELISA of Table 4)
T2 construct: extracellular domain; also called hIL22R; human Interleukin 22 receptor
T2 sequence (looked up): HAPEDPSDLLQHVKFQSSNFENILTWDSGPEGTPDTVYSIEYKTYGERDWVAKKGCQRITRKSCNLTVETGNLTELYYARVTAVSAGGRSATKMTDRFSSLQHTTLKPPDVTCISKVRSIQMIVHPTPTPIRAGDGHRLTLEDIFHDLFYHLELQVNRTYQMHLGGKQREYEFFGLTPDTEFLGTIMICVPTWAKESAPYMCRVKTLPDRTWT

T3: recombinant mouse IL22R1 (mouse IL22R ECD) (mouse, UniProt Q80XZ4 16-230, biotinylated in the ELISA of Table 4)
T3 construct: extracellular domain; also called mIL22R; mIL22R1
T3 sequence (looked up): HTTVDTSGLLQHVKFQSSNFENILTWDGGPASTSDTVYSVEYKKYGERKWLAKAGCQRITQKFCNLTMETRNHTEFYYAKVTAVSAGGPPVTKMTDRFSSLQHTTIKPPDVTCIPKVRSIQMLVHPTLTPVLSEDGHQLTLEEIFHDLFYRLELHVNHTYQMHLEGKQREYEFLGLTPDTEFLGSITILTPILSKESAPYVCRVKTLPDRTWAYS

T4: mouse IL22R on BaF3-mIL22R cells (mouse, UniProt Q80XZ4 16-581)
T4 sequence (looked up): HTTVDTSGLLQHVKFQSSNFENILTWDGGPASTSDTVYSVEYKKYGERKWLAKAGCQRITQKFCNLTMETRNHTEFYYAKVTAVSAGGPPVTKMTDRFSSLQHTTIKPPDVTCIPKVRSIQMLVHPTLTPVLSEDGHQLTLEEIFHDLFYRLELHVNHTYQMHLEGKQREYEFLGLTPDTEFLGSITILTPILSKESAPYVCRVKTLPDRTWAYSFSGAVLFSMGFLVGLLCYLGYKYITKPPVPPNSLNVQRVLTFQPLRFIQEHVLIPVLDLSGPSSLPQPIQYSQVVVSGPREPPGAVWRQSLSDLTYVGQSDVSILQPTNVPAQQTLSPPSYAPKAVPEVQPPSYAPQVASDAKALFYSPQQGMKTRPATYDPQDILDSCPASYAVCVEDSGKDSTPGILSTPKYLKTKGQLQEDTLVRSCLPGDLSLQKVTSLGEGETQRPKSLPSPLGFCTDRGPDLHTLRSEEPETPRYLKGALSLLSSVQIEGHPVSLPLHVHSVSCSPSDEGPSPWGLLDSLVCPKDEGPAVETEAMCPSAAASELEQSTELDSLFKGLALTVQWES


Key:
[1] = target: T1, human IL22R on BW-hIL22R cells; assay: cell-based or functional assay
[2] = target: T2, recombinant human IL22R1 (human IL22R …); assay: Biacore, hIL22R
[3] = target: T1, human IL22R on BW-hIL22R cells; assay: cell-based or functional assay; remark: listed apart in the source
[4] = target: T3, recombinant mouse IL22R1 (mouse IL22R …); assay: screening of clones selected on mouse IL22R; method not detailed
[5] = target: T3, recombinant mouse IL22R1 (mouse IL22R …); assay: Biacore, mIL22R
[6] = target: T4, mouse IL22R on BaF3-mIL22R cells; assay: cell-based or functional assay

Binder | IC50 pM (potency on human IL22R expressing cells) [1] | Kd [2] | Potency (pM) BW-hIL22R [3] | binding result [4] | Kd [5] | Potency (pM) BaF3-mIL22R [6]
170B2 (antibody, V domains shown, Llama-derived parental clone; also called VH_170B2; VK_170B2) VH: EVQLVESGGGLVQPGGSLRLSCAASGFTFSSSWMYWVRQAPGKGLEFVSVINTRSGITHYVESVKGRFTISTDNAKNTLFLQMNSLKSEDTAVYYCATRIQGLIDYWGQGTQVTVSS VL: DIVMTQSPSSLSVSLGDRVTITCQASQSIGSVNALAWYQQKPGQSLKLLIHGASRLQTGVPSRFSGSGSGTSFTLAISGVEAEDLATYYCLQDYAWPLTFGQGTKVELK | ~106 pM | 120 pM | 106 pM | – | – | –
198G11 (antibody, V domains shown, Vkappa-shuffled clone of 170B2 (keeps the 170B2 VH-CH1); also called VK_198G11) VH: EVQLVESGGGLVQPGGSLRLSCAASGFTFSSSWMYWVRQAPGKGLEFVSVINTRSGITHYVESVKGRFTISTDNAKNTLFLQMNSLKSEDTAVYYCATRIQGLIDYWGQGTQVTVSS VL: DIVMTQSPSSLSASLGDRVTVTCQASQSIRSSLNWYQQKPGQAPKLLIYGASRLRIGVPSRFSGSASGTSFTLTISGVESEDLATYYCLQDYTWPLSFGSGTRLEIK | 132 pM | – | – | binds | – | –
196C2 (antibody, V domains shown, Vkappa-shuffled clone of 170B2 (keeps the 170B2 VH-CH1); also called VK_196C2) VH: EVQLVESGGGLVQPGGSLRLSCAASGFTFSSSWMYWVRQAPGKGLEFVSVINTRSGITHYVESVKGRFTISTDNAKNTLFLQMNSLKSEDTAVYYCATRIQGLIDYWGQGTQVTVSS VL: DIQMTQSPSSLSASLGDRVTITCQASQSISSLLAWYQQKPGQAPKLLIYGASRLQTGVPSRFSGSGSGTSFTLTISGVEAEDLATYYCLQDYSWPLTFGQGTKVELK | 67 pM | 80 pM | 67 pM | – | 450 pM | 870 pM
197G10 (antibody, V domains shown, Vkappa-shuffled clone of 170B2 (keeps the 170B2 VH-CH1); also called VK_197G10) VH: EVQLVESGGGLVQPGGSLRLSCAASGFTFSSSWMYWVRQAPGKGLEFVSVINTRSGITHYVESVKGRFTISTDNAKNTLFLQMNSLKSEDTAVYYCATRIQGLIDYWGQGTQVTVSS VL: DIQMTQSPSSMSASLGDSVTISCQASENIGTQLFWYQQNAGQPPKLLIYGASRLQTGVPSRFSGSGSGTTFTLTISGVETGDLATYYCLQDYSWPLTFGQGTKVELK | 124 pM | 290 pM | 124 pM | – | 450 pM | 790 pM
196F8 (antibody, V domains shown, Vkappa-shuffled clone of 170B2 (keeps the 170B2 VH-CH1); also called VK_196F8) VH: EVQLVESGGGLVQPGGSLRLSCAASGFTFSSSWMYWVRQAPGKGLEFVSVINTRSGITHYVESVKGRFTISTDNAKNTLFLQMNSLKSEDTAVYYCATRIQGLIDYWGQGTQVTVSS VL: DIQMTQSPSSLSASLGDRVTITCQASQSISSMLAWYQQKPGQAPNLLIYGASRLQTGVPSRFSGSRSGTSFTLTISGVEAEDLATYYCLQDYSWPLTFGQGTKVELK | 87 pM | 10 pM | 87 pM | – | 310 pM | 105 pM
198C9 (antibody, V domains shown, Vkappa-shuffled clone of 170B2 (keeps the 170B2 VH-CH1); also called VK_198C9) VH: EVQLVESGGGLVQPGGSLRLSCAASGFTFSSSWMYWVRQAPGKGLEFVSVINTRSGITHYVESVKGRFTISTDNAKNTLFLQMNSLKSEDTAVYYCATRIQGLIDYWGQGTQVTVSS VL: DIVMTQSPSSLSASLGDRVTITCQATQSISTFLSWYQQKPGQTPKLLVYGASRLQTGVPSRFSGTGSGTKFTLTISGVEAEDLASYFCLQDYSWPLTFGQGTKVELK | 89 pM | – | – | binds | – | –
197B7 (antibody, V domains shown, Vkappa-shuffled clone of 170B2 (keeps the 170B2 VH-CH1); also called VK_197B7) VH: EVQLVESGGGLVQPGGSLRLSCAASGFTFSSSWMYWVRQAPGKGLEFVSVINTRSGITHYVESVKGRFTISTDNAKNTLFLQMNSLKSEDTAVYYCATRIQGLIDYWGQGTQVTVSS VL: DIVMTQSPSSLSASLGDRVTITCQASQSIRSFIDWYQQKPGQAPKLLIYGTSRLETGVPSRFSGTGSGTSFTLTISGVEAEDLATYYCLQDYSWPLTFGQGTKVELK | 69 pM | 38 pM | 69 pM | – | 390 pM | 160 pM
197D3 (antibody, V domains shown, Vkappa-shuffled clone of 170B2 (keeps the 170B2 VH-CH1); also called VK_197D3) VH: EVQLVESGGGLVQPGGSLRLSCAASGFTFSSSWMYWVRQAPGKGLEFVSVINTRSGITHYVESVKGRFTISTDNAKNTLFLQMNSLKSEDTAVYYCATRIQGLIDYWGQGTQVTVSS VL: DIQMTQSPSSLSASLGDRVTVTCQASQSIRSSLNWYQQKPGQAPKLLIYGASRLRIGVPSRFSGSASGTSFTLTISGVEAEDLATYYCLQEYAWPLTFGQGTKVELK | 57 pM | 89 pM | 57 pM | – | 370 pM | –
198B7 (antibody, V domains shown, Vkappa-shuffled clone of 170B2 (keeps the 170B2 VH-CH1); also called VK_198B7) VH: EVQLVESGGGLVQPGGSLRLSCAASGFTFSSSWMYWVRQAPGKGLEFVSVINTRSGITHYVESVKGRFTISTDNAKNTLFLQMNSLKSEDTAVYYCATRIQGLIDYWGQGTQVTVSS VL: DIQMTQSPSSLSASLGDRVTITCQASQSISSQLAWYQQKPGQAPKLLIYGASRLQTGVPSRFSGSGSGTSFTLTISGVEAEDLATYYCLQDYSWPLTFGQGTKVELK | – | – | – | binds | – | –
